B1: library; numbered along this chain (parent)
chain: MNIQIGELAKRTACPVVTIRFYEQEGLLPPPGRSRGNFRLYGEEHVERLQFIRHCRSLDMPLSDVRTLLSYRKRPDQDCGEVNMLLDEHIRQVESRIGALLELKHHLVELREACSGARPAQSCGILQGLSDCVCDTRGTTAHPSD

Variants of B1 are the subject of data set [1]. In words: sfGFP reporter fluorescence (15 h) (µM FITC); higher = higher leak. The settings on record: library round: Round 1; ligand: none. The procedure, abridged:
(§1)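 Linear PbrR templates were made by PCR, normalized to 5 nM with an Echo, and expressed in BL21 Star (DE3) PANOx-SP extract with the pPbrR-sfGFP reporter plasmid and 30 μg/mL GamS. Echo-assembled 1 μL reactions held 1 µM lead chloride, 30 µM zinc acetate or no metal and were incubated 15 hr at 30 °C. Endpoint sfGFP fluorescence was read on a Synergy Neo2 and expressed as µM FITC using standard curves. Up to three biological replicates were run.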

Data set [2] covers variants of B1. In words: sfGFP reporter fluorescence (15 h) (µM FITC); higher = stronger transcriptional activation. Particulars: library round: Round 1. The procedure, abridged:
as §1

± gives the standard deviation of the averaged measurements.

MNIQIGELAKRTACPVVTIRFYEQEGLLPPPGRSRGNFRLYGEEHVERLQFIRHCRSLDMPLSDVRTLLSYRKRPDQDCGEVNMLLDEHIRQVESRIGALLELKHHLVELREACSGARPAQSCGILQHLSDCVCDTRGTTAHASD [G128H P143A]: the sfGFP reporter fluorescence in data set [1] worked out at 0.061 ± 0.0027; in data set [2] (ligand: 1 µM Pb) it was 0.0728 ± 0.0023; in data set [2] (ligand: 30 µM Zn), 0.121 ± 0.0099.
For MNIQIGELAKRTACPVVTIRFYEQEGLLPPPGRSRGNFRLYGEEHVERLQFIRHCRSLDMPLSDVRTLLSYRKRPDQDCGEVMMLLDEHIRQVESRIGALLELKHHLVELREACSGARPAQSCGILQGLSACVCDTRGTTAHPSD [N83M D131A], in that order: 0.0614 ± 0.0015, 0.0845 ± 0.004 and 0.065 ± 0.0015.
For MNIQIGELAKRTACPVVTIRFYEQEGLLPPPGRSRGNFRLYGEEHVERLQFIRHCRSLDMPLSDVRTLLSYRKRPDQDCGEVSMLLDEHIRQVESRIGALLELKHHLVELREACSGARPAQSCGILQGLSDCVCATRGTTAHPSD [N83S D135A], in that order: 0.0628 ± 0.0014, 0.0731 ± 0.0064 and 0.219 ± 0.026.
The corresponding values for MNIQIGELAKRTACPVVTIRFYEQEGLLPPPGRSRGNFRLYGEEHVERLQFIRHCRSLDMPLSDVRTLLSYRKRPDQDCGEVNMLLDEHIRQVESAIGALLELVHHLVELREACSGARPAQSCGILQGLSDCVCDTRGTTAHPSD [R96A K104V] are 0.068 ± 0.0015, 0.0754 ± 0.0017 and 0.118 ± 0.0059.
In the case of MNIQIGELAKRTACPVVTIRFYEQEGLLPPPGRSRGNFRLYGEEHVERLQFIRHCRSLDMNLSDVRTLLSYRKRPDQDCGEVNMLLDEHIRQVVSRIGALLELKHHLVELREACSGARPAQSCGILQGLSDCVCDTRGTTAHPSD [P61N E94V], the sfGFP reporter fluorescence is 0.07452 ± 0.00056 in data set [1], 0.145 ± 0.009 in data set [2] (ligand: 1 µM Pb) and 0.747 ± 0.049 in data set [2] (ligand: 30 µM Zn).
The corresponding values for MNIQIGELAKRTACPVVTIRFYEQEGLLPPPGRSRGNFRLYGEEHVERLQFIRHCRSLDLPLSKVRTLLSYRKRPDQDCGEVNMLLDEHIRQVESRIGALLELKHHCVLLREACSGARPAQSCGILQILSTCVCDTRGTTAHPSD [M60L D64K L107C E109L G128I D131T] are 2.84 ± 0.3, 2.23 ± 0.17 and 2.37 ± 0.23.
As for MNIQIGELAKRTACPVVTIRFYEQEGLLPPPGRSRGNFRLYGEEHVERLQFIRHCRSLDMNLSDVRTLLSYRKRPDQDCGEVNMLLDEHIRQVESRIGALLELKHHLVELLEACSGARPAQSCGILQGLSDCVCDTRGTTAHPSD [P61N R111L], the sfGFP reporter fluorescence in data set [1] is 0.0644 ± 0.0014; in data set [2] (ligand: 1 µM Pb), 0.0861 ± 0.0066; in data set [2] (ligand: 30 µM Zn) it was 0.265 ± 0.025.
As to MNIQIGELAKRTACPVVTIRFYEQEGLLPPPGRSRGNFRLYGEEHVERLQFIRHCRSLDMPLSDVRTLLSYRKRPDQDCGEVTMLLDEHIRQVESRIGALLELKHHCVELREACSGARPAQSCGILQMLSDCVCDTRGTTAHPSD [N83T L107C G128M], the sfGFP reporter fluorescence in data set [1] amounted to 0.432 ± 0.012; in data set [2] (ligand: 1 µM Pb), 1.31 ± 0.1; in data set [2] (ligand: 30 µM Zn), 2.39 ± 0.53.
For MNIQIGELAKRTACPVVTIRFYEQEGLLPPPGRSRGNFRLYGEEHVERLQFIRHCRSLDMPLSDVRTLLSYRKRPDQDCGEVTMLLDEHIRQVESRIGALLELKHHLVELRHACSGARPAQSCGILQGLSDCVCDTRGTTAHPSD [N83T E112H], in that order: 0.0643 ± 0.0027, 0.0795 ± 0.0037 and 0.112 ± 0.0026.
For MNIQIGELAKRTACPVVTIRFYEQEGLLPPPGRSRGNFRLYGEEHVERLQFIRHCRSLDMPLSDVRTLLSYRKRPDQDCGEVNMLLDEHIRQVESRIGALLELKHHLVELREACSGARPAQSCGILQGLSDCVCATRGTTAHWSD [D135A P143W], in that order: 0.0683 ± 0.0014, 0.0809 ± 0.0017 and 0.372 ± 0.0075.
For MNIQIGELAKRTACPVVTIRFYEQEGLLPPPGRSRGNFRLYGEEHVERLQFIRHCRSLDMPLSDVRTLLSYRKRPDQDCGEVNMLLDEHIRQVESRIGALLELKHHLVELREACSGARPAQSCGILQGLSDCVCATRGTTAHMSD [D135A P143M], the sfGFP reporter fluorescence in data set [1] is 0.0655 ± 0.002; in data set [2] (ligand: 1 µM Pb), 0.07977 ± 0.00056; in data set [2] (ligand: 30 µM Zn), 0.405 ± 0.014.
For MNIQIGELAKRTACPVVTIRFYEQEGLLPPPGRSRGNFRLYGEEHVERLQFIRHCRSLDMPLSDVRTLLSYRKRPDQDCGEVNMLLDEHIRQVESRIGALLELKHHLVELREACSGARPAQSCGILQGLSDCVCATRGTTAHYSD [D135A P143Y], in that order: 0.0639 ± 0.0033, 0.0797 ± 0.0033 and 0.361 ± 0.028.
For MNIQIGELAKRTACPVVTIRFYEQEGLLPPPGRSRGNFRLYGEEHVERLQFIRHVRSLDMPLSDVRTLLSYRKRPDQDCGEVNMLLDEHIRQVESRIGALLELVHHLVELREACSGARPAQSCGILQGLSDCVCDTRGTTAHPSD [C55V K104V], in that order: 0.0621 ± 0.00092, 0.0644 ± 0.0017 and 0.107 ± 0.0044.
For MNIQIGELAKRTACPVVTIRFYEQEGLLPPPGRSRGNFRLYGEEHVERLQFIRHCRSLDMPLSKVRTLLSYRKRPDQDCGEVNMLLDEHIRQVESRAGALLELKHHLVELREACSGARPAQSCGILQGLSDCVCDTRGTTAHPSD [D64K I97A], the sfGFP reporter fluorescence came to 0.2087 ± 0.002 in data set [1], 0.581 ± 0.17 in data set [2] (ligand: 1 µM Pb) and 2.21 ± 0.066 in data set [2] (ligand: 30 µM Zn).

(Values after the supplement of paper PMC12783771.)
